This note sets out measurements from patent US20080261906.

For data set [1], the target named is other Rabs and Arfs of the panel (27 mammalian Rabs and several different ARFs were tested).
For data set [2], the target named is Rab1 GTPase (GTP-loaded, purified).

B1: TBC1D20 with a 6xHIS N-terminal tag (bacterially expressed, pDEST-17) (protein)
chain: MALRSAQGDGPTSGHWDGGAEKADFNAKRKKKVAEIHQALNSDPTDVAALRRMAISEGGLLTDEIRRKVWPKLLNVNANDPPPISGKNLRQMSKDYQQVLLDVRRSLRRFPPGMPEEQREGLQEELIDIILLILERNPQLHYYQGYHDIVVTFLLVVGERLATSLVEKLSTHHLRDFMDPTMDNTKHILNYLMPIIDQVNPELHDFMQSAEVGTIFALSWLITWFGHVLSDFRHVVRLYDFFLACHPLMPIYFAAVIVLYREQEVLDCDCDMASVHHLLSQIPQDLPYETLISRAGDLFVQFPPSELAREAAAQQQAERTAASTFKDFELASAQQRPDMVLRQRFRGLLRPEDRTKDVLTKPRTNRFVKLAVMGLTVALGAAALAVVKSALEWAPKFQLQLFP
Regarding B1, in data set [1], the “catalytic efficiency relative to the intrinsic rate constant for GTP hydrolysis” value is given as “Note that only Rab1 displays significant activation by TBC1D20”. The “catalytic efficiency (kcat/Km) of GAP-accelerated GTP hydrolysis” value in data set [2] was “Activation of Rab1GTP hydrolysis by TBC1D20 has an apparent catalytic efficiency (kcat/Km) of 360 M^-1s^-1”.

B2: mutant TBC1D20 (R66A, R105A), 6xHIS N-terminal tag, bacterially expressed (protein)
chain: MALRSAQGDGPTSGHWDGGAEKADFNAKRKKKVAEIHQALNSDPTDVAALRRMAISEGGLLTDEIARKVWPKLLNVNANDPPPISGKNLRQMSKDYQQVLLDVRASLRRFPPGMPEEQREGLQEELIDIILLILERNPQLHYYQGYHDIVVTFLLVVGERLATSLVEKLSTHHLRDFMDPTMDNTKHILNYLMPIIDQVNPELHDFMQSAEVGTIFALSWLITWFGHVLSDFRHVVRLYDFFLACHPLMPIYFAAVIVLYREQEVLDCDCDMASVHHLLSQIPQDLPYETLISRAGDLFVQFPPSELAREAAAQQQAERTAASTFKDFELASAQQRPDMVLRQRFRGLLRPEDRTKDVLTKPRTNRFVKLAVMGLTVALGAAALAVVKSALEWAPKFQLQLFP
Take B2: the “kinetics of Rab1 GTP hydrolysis (GAP assay)” value in data set [2] is “the GTPase activating activity of TBC1D20 on Rab1 was abolished when these conserved arginine residues were mutated to alanine”.
